According to patent US20040167319A1 (Genmab, published 2004):
*1 amine or outer side, *2 acyl side, *3 side chain or, on linkers, in order; H or OH if unused. Bridges are numbered along the chain shown (N, C = ends). Where no end group is shown, it is not given here. mXylylene = c1cc(C[*:1])cc(C[*:2])c1; minicard = not defined here

Key:
Assay in all cases: Pepscan ELISA, 10 µg/ml
GIYAPIC = biological target: T1, GIYAPIC (also: covalently linked to polyethylene card)
T1 construct: 7-mer Pepscan peptide derived from human CD20
T1 peptide: GIYAPIC
Source text: (§1) In some cases chemical linkage of the legs of a 15-mer peptide helps to identify amino acid sequences of a potentially discontinuous epitope. […] The 9- and 15-mers were synthesized as loops and screened using credit-card format mini-PEPSCAN cards (455 peptide format/card). In all looped peptides amino acids at varied positions were replaced by a cysteine (e.g., acetyl-XCXXXXXXXXCX-minicard). The peptides were synthesized using standard Fmoc-chemistry and deprotected using TFA with scavengers. Subsequently, the deprotected peptides were reacted on the microarray with an 0.5 mM solution of 1,3-bis(bromomethyl)-benzene in ammonium bicarbonate (20 mM, pH 7.9), supplemented with acetonitrile (1:1 (v/v)). The microarrays were gently shaken in the solution for 30-60 min, while completely covered in the solution. Finally, the microarrays were washed extensively with excess of Millipore H₂O and sonicated in disrupt-buffer containing 1% sodium dodecylsulfate, 0.1% β-mercaptoethanol, in PBS (pH 7.2) at 70° C. for 30 min, followed by sonication in millipore H₂O for another 45 min. Subsequently, the microwells were ready for screening in an ELISA-assay.
(§2) […] After washing, the peptides were incubated with anti-human antibody peroxidase (dilution 1:1000, 1 hour, 25° C.), and after washing the peroxidase substrate, 2,2′-azino-di-3-ethylbenzthiazolin sulfonate and 2 μl/ml 3% H₂O₂ were added. After one hour, the color development was measured. The color development of the ELISA was quantified with a CCD-camera and an image processing system.

YCNIYNAEPANPSCK = biological target: T2, YCNIYNAEPANPSCK (linker 2-14 via mXylylene; reading uncertain)
T2 construct: 15-mer looped Pepscan peptide derived from human CD20, Cys put in at two positions
T2 peptide: Ac-YCNIYNAEPANPSCK-minicard
Source text: as §1, §2

ICNAEPANPSEKNCP = biological target: T3, ICNAEPANPSEKNCP (linker 2-14 via 1,3‑bis(bromomethyl)‑benzene (inferred); reading uncertain)
T3 construct: 15-mer looped Pepscan peptide derived from human CD20, Cys put in at two positions
T3 peptide: Ac-ICNAEPANPSEKNCP-minicard
Source text: as §1, §2

ECANPSEKNSPSTCY = biological target: T4, ECANPSEKNSPSTCY (linker 2-14 via 1,3‑bis(bromomethyl)‑benzene (inferred); reading uncertain)
T4 construct: 15-mer looped Pepscan peptide derived from human CD20, Cys put in at two positions
T4 peptide: Ac-ECANPSEKNSPSTCY-minicard
Source text: as §1, §2

KMECLNFIRAHCPYI = biological target: T5, KMECLNFIRAHCPYI (linker 4-12 via 1,3‑bis(bromomethyl)‑benzene (inferred); reading uncertain)
T5 construct: 15-mer looped Pepscan peptide derived from human CD20, Cys put in at two positions
T5 peptide: Ac-KMECLNFIRAHCPYI-minicard
Source text: as §1, §2

ICIYNAEPANPSECN = biological target: T6, ICIYNAEPANPSECN (linker 2-14 via 1,3‑bis(bromomethyl)‑benzene (inferred); reading uncertain)
T6 construct: 15-mer looped Pepscan peptide derived from human CD20, Cys put in at two positions
T6 peptide: Ac-ICIYNAEPANPSECN-minicard
Source text: as §1, §2

CFIRAHTPC = biological target: T7, CFIRAHTPC (linker 1-9 via 1,3‑bis(bromomethyl)‑benzene (inferred); not fully specified (C-terminus); also: covalently linked to minicard)
T7 construct: 9-mer looped Pepscan peptide derived from human CD20
T7 peptide: CFIRAHTPC
Source text: as §1, §2

IYAPIAV = biological target: T8, IYAPIAV (also: covalently linked to polyethylene card)
T8 construct: 7-mer Pepscan peptide derived from human CD20 (A in place of the C of IYAPICV)
T8 peptide: IYAPIAV
Source text: as §1, §2

AGIYAPI = biological target: T9, AGIYAPI (also: covalently linked to polyethylene card)
T9 construct: 7-mer Pepscan peptide derived from human CD20
T9 peptide: AGIYAPI
Source text: as §1, §2

GIYAPIA = biological target: T10, GIYAPIA (also: covalently linked to polyethylene card)
T10 construct: 7-mer Pepscan peptide derived from human CD20 (A in place of the C of GIYAPIC)
T10 peptide: GIYAPIA
Source text: as §1, §2

IYAPICV = biological target: T11, IYAPICV (also: covalently linked to polyethylene card)
T11 construct: 7-mer Pepscan peptide derived from human CD20
T11 peptide: IYAPICV
Source text: as §1, §2

YCAEPANPSEKNSCS = biological target: T12, YCAEPANPSEKNSCS (linker 2-14 via 1,3‑bis(bromomethyl)‑benzene (inferred); reading uncertain)
T12 construct: 15-mer looped Pepscan peptide derived from human CD20, Cys put in at two positions
T12 peptide: Ac-YCAEPANPSEKNSCS-minicard
Source text: as §1, §2

PCINIYNAEPANPCE = biological target: T13, PCINIYNAEPANPCE (linker 2-14 via 1,3‑bis(bromomethyl)‑benzene (inferred); reading uncertain)
T13 construct: 15-mer looped Pepscan peptide derived from human CD20, Cys put in at two positions
T13 peptide: Ac-PCINIYNAEPANPCE-minicard
Source text: as §1, §2

NCYNAEPANPSEKCS = biological target: T14, NCYNAEPANPSEKCS (linker 2-14 via 1,3‑bis(bromomethyl)‑benzene (inferred); reading uncertain)
T14 construct: 15-mer looped Pepscan peptide derived from human CD20, Cys put in at two positions
T14 peptide: Ac-NCYNAEPANPSEKCS-minicard
Source text: as §1, §2

ACPANPSEKNSPSCQ = biological target: T15, ACPANPSEKNSPSCQ (linker 2-14 via 1,3‑bis(bromomethyl)‑benzene (inferred); reading uncertain)
T15 construct: 15-mer looped Pepscan peptide derived from human CD20, Cys put in at two positions
T15 peptide: Ac-ACPANPSEKNSPSCQ-minicard
Source text: as §1, §2

CIRAHTPYC = biological target: T16, CIRAHTPYC (linker 1-9 via 1,3‑bis(bromomethyl)‑benzene (inferred); not fully specified (C-terminus); also: covalently linked to minicard)
T16 construct: 9-mer looped Pepscan peptide derived from human CD20
T16 peptide: CIRAHTPYC
Source text: as §1, §2

CAHTPYINC = biological target: T17, CAHTPYINC (linker 1-9 via 1,3‑bis(bromomethyl)‑benzene (inferred); not fully specified (C-terminus); also: covalently linked to minicard)
T17 construct: 9-mer looped Pepscan peptide derived from human CD20
T17 peptide: CAHTPYINC
Source text: as §1, §2

NCEPANPSEKNSPCT = biological target: T18, NCEPANPSEKNSPCT (linker 2-14 via 1,3‑bis(bromomethyl)‑benzene (inferred); reading uncertain)
T18 construct: 15-mer looped Pepscan peptide derived from human CD20, Cys put in at two positions
T18 peptide: Ac-NCEPANPSEKNSPCT-minicard
Source text: as §1, §2

MESLCFIRAHCPYIN = biological target: T19, MESLCFIRAHCPYIN (linker 5-11 via 1,3‑bis(bromomethyl)‑benzene (inferred); reading uncertain)
T19 construct: 15-mer looped Pepscan peptide derived from human CD20, Cys put in at two positions
T19 peptide: Ac-MESLCFIRAHCPYIN-minicard
Source text: as §1, §2

IPAGIYA = biological target: T20, IPAGIYA (also: covalently linked to polyethylene card)
T20 construct: 7-mer Pepscan peptide derived from human CD20
T20 peptide: IPAGIYA
Source text: as §1, §2

PAGIYAP = biological target: T21, PAGIYAP (also: covalently linked to polyethylene card)
T21 construct: 7-mer Pepscan peptide derived from human CD20
T21 peptide: PAGIYAP
Source text: as §1, §2

LKMECLNFIRCHTPY = biological target: T22, LKMECLNFIRCHTPY (linker 5-11 via 1,3‑bis(bromomethyl)‑benzene (inferred); reading uncertain)
T22 construct: 15-mer looped Pepscan peptide derived from human CD20, Cys put in at two positions
T22 peptide: Ac-LKMECLNFIRCHTPY-minicard
Source text: as §1, §2

CRAHTPYIC = biological target: T23, CRAHTPYIC (linker 1-9 via 1,3‑bis(bromomethyl)‑benzene (inferred); not fully specified (C-terminus); also: covalently linked to minicard)
T23 construct: 9-mer looped Pepscan peptide derived from human CD20
T23 peptide: CRAHTPYIC
Source text: as §1, §2

Binder | OD (absorbance) (GIYAPIC) [OD] | OD (absorbance) (YCNIYNAEPANPSCK) [OD] | OD (absorbance) (ICNAEPANPSEKNCP) [OD] | OD (absorbance) (ECANPSEKNSPSTCY) [OD] | OD (absorbance) (KMECLNFIRAHCPYI) [OD] | OD (absorbance) (ICIYNAEPANPSECN) [OD] | OD (absorbance) (CFIRAHTPC) [OD] | OD (absorbance) (IYAPIAV) [OD] | OD (absorbance) (AGIYAPI) [OD] | OD (absorbance) (GIYAPIA) [OD] | OD (absorbance) (IYAPICV) [OD] | OD (absorbance) (YCAEPANPSEKNSCS) [OD] | OD (absorbance) (PCINIYNAEPANPCE) [OD] | OD (absorbance) (NCYNAEPANPSEKCS) [OD] | OD (absorbance) (ACPANPSEKNSPSCQ) [OD] | OD (absorbance) (CIRAHTPYC) [OD] | OD (absorbance) (CAHTPYINC) [OD] | OD (absorbance) (NCEPANPSEKNSPCT) [OD] | OD (absorbance) (MESLCFIRAHCPYIN) [OD] | OD (absorbance) (IPAGIYA) [OD] | other results
11B8 (antibody, IgG3, V domains shown, Human monoclonal IgG3,κ from hybridoma) VH: EVQLVQSGGGLVHPGGSLRLSCTGSGFTFSYHAMHWVRQAPGKGLEWVSIIGTGGVTYYADSVKGRFTISRDNVKNSLYLQMNSLRAEDMAVYYCARDYYGAGSFYDGLYGMDVWGQGTTVTVSS VL: EIVLTQSPATLSLSPGERATLSCRASQSVSSYLAWYQQKPGQAPRLLIYDASNRATGIPARFSGSGSGTDFTLTISSLEPEDFAVYYCQQRSDWPLTFGGGTKVEIK | 99 | 287 | 115 | 134 | 763 | 138 | 188 | 161 | 251 | 172 | 137 | 106 | 118 | 93 | 146 | 151 | 179 | 159 | 179 | 217 | OD (absorbance) (PAGIYAP): 449 OD; OD (absorbance) (LKMECLNFIRCHTPY): 165 OD; OD (absorbance) (CRAHTPYIC): 427 OD
7D8 (antibody, IgG1, V domains shown, Human monoclonal IgG1,κ from hybridoma) VH: EVQLVESGGGLVQPDRSLRLSCAASGFTFHDYAMHWVRQAPGKGLEWVSTISWNSGTIGYADSVKGRFTISRDNAKNSLYLQMNSLRAEDTALYYCAKDIQYGNYYYGMDVWGQGTTVTVSS VL: EIVLTQSPATLSLSPGERATLSCRASQSVSSYLAWYQQKPGQAPRLLIYDASNRATGIPARFSGSGSGTDFTLTISSLEPEDFAVYYCQQRSNWPITFGQGTRLEIK | 152 | 181 | 165 | 179 | 134 | 192 | 181 | 181 | 188 | 177 | 174 | 188 | 163 | 121 | 148 | 186 | 174 | 183 | 127 | 164 | OD (absorbance) (PAGIYAP): 170 OD; OD (absorbance) (LKMECLNFIRCHTPY): 160 OD; OD (absorbance) (CRAHTPYIC): 188 OD
2F2 (antibody, V domains shown, FITC- or 125I-labelled in some assays; F(ab')2 fragments in some; the letters do not carry this, Human monoclonal IgG1,κ from hybridoma; also called 4C9; HuMab 2F2 (hybridoma-derived)) VH: EVQLVESGGGLVQPGRSLRLSCAASGFTFNDYAMHWVRQAPGKGLEWVSTISWNSGSIGYADSVKGRFTISRDNAKKSLYLQMNSLRAEDTALYYCAKDIQYGNYYYGMDVWGQGTTVTVSS VL: EIVLTQSPATLSLSPGERATLSCRASQSVSSYLAWYQQKPGQAPRLLIYDASNRATGIPARFSGSGSGTDFTLTISSLEPEDFAVYYCQQRSNWPITFGQGTRLEIK | 34 | 86 | 43 | 68 | 48 | 78 | 91 | 62 | 44 | 62 | 58 | 65 | 65 | 49 | 77 | 57 | 42 | 61 | 41 | 48 | OD (absorbance) (PAGIYAP): 43 OD; OD (absorbance) (LKMECLNFIRCHTPY): 49 OD; OD (absorbance) (CRAHTPYIC): 48 OD
